% GFP Positive HepG2 cells, Av3GFP + 5 µg trimeric sCAR (Av3GFP alone: 98), % GFP Positive HepG2 cells, Av3GFP + 10 µg trimeric sCAR (Av3GFP alone: 98) and % GFP Positive HepG2 cells, Av3GFP + 20 µg trimeric sCAR (Av3GFP alone: 98) data for one substance are collected here from US20020132769A1.

This test addresses fiber on the vector capsid of the adenoviral vector Av3GFP (adenovirus, serotype not stated). The test is described as follows: cell-based or functional assay.

In the case of “trimerized sCAR (sCAR followed by a glycine/serine linker, the isoleucine variant GCN4 trimerization domain, and a 6 His Tag; plasmid pGStriCARb) (receptor)”, the % GFP Positive HepG2 cells, Av3GFP + 5 µg trimeric sCAR (Av3GFP alone: 98) stood at 43%; the % GFP Positive HepG2 cells, Av3GFP + 10 µg trimeric sCAR (Av3GFP alone: 98) turned out to be 32%; the % GFP Positive HepG2 cells, Av3GFP + 20 µg trimeric sCAR (Av3GFP alone: 98) came to 32%.
